This is an account of results in patent US20120270768.

prostate specific antigen (PSA): the “Kcat against Mu-HSSKLQ-AMC” value in the data set on Ac-GKSQYQ-AMC, in the data set on Ac-GSSKYQ-AMC and with Ac-GsAKYQ-AMC was “˜10-fold improvement in the Kcat kinetic parameter” throughout. Moreover, the Kcat/Km with Ac-GKSQYQ-AMC was determined as 278 s^-1M^-1; with Ac-GSSKFQ-AMC, 86 s^-1M^-1; with Ac-GSSKYQ-AMC, 227 s^-1M^-1; in the data set with Ac-GsAKYQ-AMC, 218 s^-1M^-1; with Mu-HSSKLQ-AMC it was 23.6 s^-1M^-1. Also, the “Kcat/Km ratio against Mu-HSSKLQ-AMC” value with Ac-GKSQYQ-AMC, in the data set on Ac-GSSKYQ-AMC and in the data set on Ac-GsAKYQ-AMC was “Kcat/Km ratios that were 10-fold higher than the Mu-HSSKLQ-AMC test peptide” in each case. Also, the Km – broadly, the substrate concentration at which the rate is half of its maximum – stood at 343 µM with Ac-GKSQYQ-AMC; 666 µM with Ac-GSSKFQ-AMC; 500 µM in the data set with Ac-GSSKYQ-AMC; 653 µM with Ac-GsAKYQ-AMC; 470 µM in the data set on Mu-HSSKLQ-AMC. For the same substance, the kcat (commonly the number of substrate molecules converted per active site and unit of time at saturation) in the data set with Ac-GKSQYQ-AMC was found to be 0.09 s⁻¹; in the data set with Ac-GSSKFQ-AMC, 0.057 s⁻¹; in the data set on Ac-GSSKYQ-AMC, 0.113 s⁻¹; in the data set with Ac-GsAKYQ-AMC it was 0.143 s⁻¹; in the data set on Mu-HSSKLQ-AMC it was 0.011 s⁻¹. In addition, the “PSA hydrolysis (release of L12ADT, LC/MS)” value in the data set with Mu-HSSKLQ//L12ADT and in the data set with Mu-SSKYQ//L12ADT was “the new prodrug was hydrolyzed dramatically better than the test peptide” throughout.
